From patent US20200239537

Target: T1, apelin-17 (2)
T1 chain: KFRRQRPRLSHKGPMPF

B1: recombinant human neprilysin (rhNEP, Sino Biological) (protein)
chain: YDDGICKSSDCIKSAARLIQNMDATTEPCTDFFKYACGGWLKRNVIPETSSRYGNFDILRDELEVVLKDVLQEPKTEDIVAVQKAKALYRSCINESAIDSRGGEPLLKLLPDIYGWPVATENWEQKYGASWTAEKAIAQLNSKYGKKVLINLFVGTDDKNSVNHVIHIDQPRLGLPSRDYYECTGIYKEACTAYVDFMISVARLIRQEERLPIDENQLALEMNKVMELEKEIANATAKPEDRNDPMLLYNKMTLAQIQNNFSLEINGKPFSWLNFTNEIMSTVNISITNEEDVVVYAPEYLTKLKPILTKYSARDLQNLMSWRFIMDLVSSLSRTYKESRNAFRKALYGTTSETATWRRCANYVNGNMENAVGRLYVEAAFAGESKHVVEDLIAQIREVFIQTLDDLTWMDAETKKRAEEKALAIKERIGYPDDIVSNDNKLNNEYLELNYKEDEYFENIIQNLKFSQSKQLKKLREKVDKDEWISGAAVVNAFYSSGRNQIVFPAGILQPPFFSAQQSNSLNYGGIGMVIGHEITHGFDDNGRNFNKDGDLVDWWTQQSASNFKEQSQCMVYQYGNFSWDLAGGQHLNGINTLGENIADNGGLGQAYRAYQNYIKKNGEEKLLPGLDLNHKQLFFLNFAQVWCGTYRPEYAVNSIKTDVHSPGNFRIIGTLQNSAEFSEAFHCRKNSYMNPEKKCRVW
For B1, the Km was 190 µM, the kcat (1/S) was 3.4 1/S and the kcat/Km (1/MS) was 18000 1/MS.
